In test [1] the target is T1, N-terminal β′-COP propeller (residues 1–304), untagged (yeast (S. cerevisiae), UniProt P41811 1-304).
T1 sequence (looked up): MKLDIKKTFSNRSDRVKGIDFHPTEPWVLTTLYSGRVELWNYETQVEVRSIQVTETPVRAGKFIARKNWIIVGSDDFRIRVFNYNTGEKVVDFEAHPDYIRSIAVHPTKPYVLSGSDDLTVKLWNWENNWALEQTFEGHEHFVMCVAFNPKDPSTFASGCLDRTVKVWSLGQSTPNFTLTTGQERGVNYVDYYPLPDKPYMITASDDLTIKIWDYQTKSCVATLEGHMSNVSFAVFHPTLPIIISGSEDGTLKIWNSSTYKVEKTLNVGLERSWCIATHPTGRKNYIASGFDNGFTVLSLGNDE
Nature of the test: ITC.

For test [2], the target named is T2, untagged β′-COP residues 1–604 (yeast (S. cerevisiae), UniProt P41811 1-604).
T2 sequence (looked up): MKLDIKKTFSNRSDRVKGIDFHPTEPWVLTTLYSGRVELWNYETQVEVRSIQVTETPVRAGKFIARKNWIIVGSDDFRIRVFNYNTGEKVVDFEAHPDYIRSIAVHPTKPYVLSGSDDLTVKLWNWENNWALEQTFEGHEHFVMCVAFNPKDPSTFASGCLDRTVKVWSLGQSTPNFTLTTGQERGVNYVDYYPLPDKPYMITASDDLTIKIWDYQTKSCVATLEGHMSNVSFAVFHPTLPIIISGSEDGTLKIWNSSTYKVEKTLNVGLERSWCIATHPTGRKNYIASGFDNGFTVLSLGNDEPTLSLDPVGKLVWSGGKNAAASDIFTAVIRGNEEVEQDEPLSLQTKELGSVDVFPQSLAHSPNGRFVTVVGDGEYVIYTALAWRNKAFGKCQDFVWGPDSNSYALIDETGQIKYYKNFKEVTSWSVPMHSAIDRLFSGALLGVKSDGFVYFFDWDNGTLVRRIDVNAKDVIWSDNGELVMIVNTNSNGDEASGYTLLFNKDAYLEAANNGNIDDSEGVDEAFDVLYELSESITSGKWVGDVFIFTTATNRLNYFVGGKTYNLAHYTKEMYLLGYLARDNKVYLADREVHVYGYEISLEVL
The test can be described thus: ITC.

In a further test the target is T3, β′604-H6 (yeast (S. cerevisiae), UniProt P41811 1-604).
T3 sequence (looked up): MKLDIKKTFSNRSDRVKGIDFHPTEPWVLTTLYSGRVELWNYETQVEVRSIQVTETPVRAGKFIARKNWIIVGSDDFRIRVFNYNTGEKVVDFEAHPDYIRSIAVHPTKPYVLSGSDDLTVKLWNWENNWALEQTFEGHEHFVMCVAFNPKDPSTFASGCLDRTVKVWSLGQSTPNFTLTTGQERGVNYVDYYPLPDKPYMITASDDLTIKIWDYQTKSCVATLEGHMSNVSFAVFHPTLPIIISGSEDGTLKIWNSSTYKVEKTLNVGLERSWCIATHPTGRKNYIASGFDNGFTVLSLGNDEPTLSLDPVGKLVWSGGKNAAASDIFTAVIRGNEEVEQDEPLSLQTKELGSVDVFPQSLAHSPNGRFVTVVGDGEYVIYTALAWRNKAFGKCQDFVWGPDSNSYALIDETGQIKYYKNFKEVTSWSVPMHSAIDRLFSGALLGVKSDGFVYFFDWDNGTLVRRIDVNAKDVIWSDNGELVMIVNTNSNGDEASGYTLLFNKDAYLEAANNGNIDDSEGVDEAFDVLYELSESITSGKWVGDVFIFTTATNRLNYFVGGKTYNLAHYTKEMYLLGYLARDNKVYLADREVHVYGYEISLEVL
The test can be described thus: pull-down.

The target in test [3] is T4, mutant β′-COP (D437A/D450A), residues 1–604, untagged (yeast (S. cerevisiae), UniProt P41811 1-604, D437A | D450A).
T4 sequence (looked up): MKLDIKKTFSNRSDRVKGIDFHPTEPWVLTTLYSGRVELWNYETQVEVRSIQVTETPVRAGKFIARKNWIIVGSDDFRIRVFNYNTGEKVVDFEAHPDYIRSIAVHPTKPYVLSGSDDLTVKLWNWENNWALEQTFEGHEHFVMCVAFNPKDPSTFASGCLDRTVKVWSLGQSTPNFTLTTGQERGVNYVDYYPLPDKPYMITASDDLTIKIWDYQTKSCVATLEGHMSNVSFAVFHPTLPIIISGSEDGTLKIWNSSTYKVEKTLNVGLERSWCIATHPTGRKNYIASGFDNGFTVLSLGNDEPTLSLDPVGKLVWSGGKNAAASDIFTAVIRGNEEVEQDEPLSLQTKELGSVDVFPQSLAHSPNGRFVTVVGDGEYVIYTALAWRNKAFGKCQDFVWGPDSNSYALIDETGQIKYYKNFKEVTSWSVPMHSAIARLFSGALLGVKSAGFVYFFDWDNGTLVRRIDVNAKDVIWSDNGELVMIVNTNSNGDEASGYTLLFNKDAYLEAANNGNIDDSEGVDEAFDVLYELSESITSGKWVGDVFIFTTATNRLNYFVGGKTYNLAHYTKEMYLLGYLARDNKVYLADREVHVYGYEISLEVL
Nature of the test: ITC. For orientation: In ITC the heat of successive injections is recorded.

Test [4] has as its target T5, β′-COP D98A/D117A, residues 1–604, untagged (yeast (S. cerevisiae), UniProt P41811 1-604, D98A | D117A).
T5 sequence (looked up): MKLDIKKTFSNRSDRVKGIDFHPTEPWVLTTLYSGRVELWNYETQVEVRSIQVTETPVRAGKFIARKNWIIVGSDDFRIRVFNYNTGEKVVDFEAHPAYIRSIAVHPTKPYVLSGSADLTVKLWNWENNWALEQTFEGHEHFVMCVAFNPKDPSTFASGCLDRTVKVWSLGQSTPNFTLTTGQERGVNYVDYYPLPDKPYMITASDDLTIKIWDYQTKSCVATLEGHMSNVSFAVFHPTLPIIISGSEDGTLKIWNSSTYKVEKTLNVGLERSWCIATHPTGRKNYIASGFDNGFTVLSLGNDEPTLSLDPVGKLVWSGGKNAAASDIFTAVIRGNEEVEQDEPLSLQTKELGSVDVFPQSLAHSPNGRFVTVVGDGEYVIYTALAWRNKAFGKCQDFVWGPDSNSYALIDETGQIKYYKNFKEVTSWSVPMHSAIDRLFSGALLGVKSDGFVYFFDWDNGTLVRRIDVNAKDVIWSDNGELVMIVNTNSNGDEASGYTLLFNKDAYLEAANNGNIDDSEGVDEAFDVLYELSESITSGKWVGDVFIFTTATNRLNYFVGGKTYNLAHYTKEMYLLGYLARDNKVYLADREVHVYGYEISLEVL
Nature of the test: ITC.

Test [5] has as its target T6, β′-COP residues 1–604 with a C-terminal GST tag (yeast (S. cerevisiae), UniProt P41811 1-604).
T6 sequence (looked up): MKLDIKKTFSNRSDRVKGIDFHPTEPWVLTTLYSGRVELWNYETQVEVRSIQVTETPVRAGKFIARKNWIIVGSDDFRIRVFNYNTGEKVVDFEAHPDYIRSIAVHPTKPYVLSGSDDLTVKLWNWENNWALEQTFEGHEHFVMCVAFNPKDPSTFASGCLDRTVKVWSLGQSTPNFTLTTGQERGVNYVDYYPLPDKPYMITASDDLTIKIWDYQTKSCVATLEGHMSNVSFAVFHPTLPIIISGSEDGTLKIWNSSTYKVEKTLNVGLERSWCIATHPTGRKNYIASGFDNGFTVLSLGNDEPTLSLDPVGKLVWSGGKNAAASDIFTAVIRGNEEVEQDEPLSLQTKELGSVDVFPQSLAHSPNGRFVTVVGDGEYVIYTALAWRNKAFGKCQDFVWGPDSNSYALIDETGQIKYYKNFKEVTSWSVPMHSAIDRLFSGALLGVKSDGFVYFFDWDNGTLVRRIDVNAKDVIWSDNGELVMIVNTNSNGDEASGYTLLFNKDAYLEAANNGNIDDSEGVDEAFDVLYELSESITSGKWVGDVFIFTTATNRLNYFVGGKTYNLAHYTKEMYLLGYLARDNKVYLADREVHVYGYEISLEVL
Nature of the test: pull-down.

Several values for one entry are separate records, joined by “and”; a condition that tells them apart may be missing. Identical values can stand only once. Where only a bound is given, the exact number is not on record here.

B1: untagged Glo3 BoCCS fragment (residues 230–300) (domain or fragment, yeast (S. cerevisiae), UniProt P38682 230-300, looked up)
chain: SQDKKKHSILSSSRKPTRLTAKKVDKSQAEDLFDQFKKEAQQEKEDEFTNSSSSTKIRQNDYDSQFMNNSK
As a reminder, the Kd is the equilibrium constant for the complex coming apart. Broadly, the stoichiometry N is the number of molecules, sites or subunits per partner or assembly. In the case of B1, in test [1], the equilibrium dissociation constant (Kd) is < 300 µM. In test [2], the Kd was ~1 µM and the “stoichiometry N” value was determined as 1.

B2: GST-BoCCS, Glo3 residues 208–383 (domain or fragment, yeast (S. cerevisiae), UniProt P38682 208-383, looked up)
chain: KTTVTKTRSSILTASRKKPVLNSQDKKKHSILSSSRKPTRLTAKKVDKSQAEDLFDQFKKEAQQEKEDEFTNSSSSTKIRQNDYDSQFMNNSKGNNNNSIDDINTQPDEFNDFLNDTSNSFDTTRKEQQDTLTPKFAKLGFGMTMNDANDLAKQQKESQKIAQGPRYTGRIAERYG
For B2, in the test with β′604-H6, the binding result was “binds”.

B3: Glo3 residues 220–290, untagged (domain or fragment, yeast (S. cerevisiae), UniProt P38682 220-290, looked up)
chain: TASRKKPVLNSQDKKKHSILSSSRKPTRLTAKKVDKSQAEDLFDQFKKEAQQEKEDEFTNSSSSTKIRQND
Consider B3, for which, in test [2], the binding result is “binds”. Take SQDKKKHSILSSSRKPTRLTAKKVDKSQAEDLFDQFKKEAQ (domain or fragment, yeast (S. cerevisiae), UniProt P38682 230-270, looked up) [Glo3 residues 230–270, untagged]: in test [2], the binding result is on record as “binds”.

B4: untagged Glo3 residues 230–290 (domain or fragment, yeast (S. cerevisiae), UniProt P38682 230-290, looked up)
chain: SQDKKKHSILSSSRKPTRLTAKKVDKSQAEDLFDQFKKEAQQEKEDEFTNSSSSTKIRQND
Consider B4, for which the Kd in test [3] was determined as 18 µM. Moreover, the binding result in test [4] is listed as “binds”. For the same molecule, in test [2], the Kd is 0.6 µM and 0.8 to 6 µM; the “stoichiometry N” value amounted to 1.

B5: Glo3 (residues 230–290) K251E/K252E/K255E (domain or fragment, yeast (S. cerevisiae), UniProt P38682 230-290, looked up)
chain: SQDKKKHSILSSSRKPTRLTAEEVDESQAEDLFDQFKKEAQQEKEDEFTNSSSSTKIRQND
For the molecule B5, the Kd in test [2] was ~12 µM.

B6: Glo3 (residues 230–290) K233E/K234E/K235E (domain or fragment, yeast (S. cerevisiae), UniProt P38682 230-290, looked up)
chain: SQDEEEHSILSSSRKPTRLTAKKVDKSQAEDLFDQFKKEAQQEKEDEFTNSSSSTKIRQND
Consider B6, for which the Kd in test [2] is < 300 µM.

B7: Glo3 (residues 230–290) K233E (domain or fragment, yeast (S. cerevisiae), UniProt P38682 230-290, looked up)
chain: SQDEKKHSILSSSRKPTRLTAKKVDKSQAEDLFDQFKKEAQQEKEDEFTNSSSSTKIRQND
As for B7, the Kd in test [2] is ~12 µM.

B8: full-length Glo3-H8 (natural protein)
chain: not shown
Consider B8, for which the binding result in test [5] is listed as “binds”.

The values are drawn from article PMC9960064 (The Journal of Cell Biology, 2023).
